Experimental data from the supplement of paper PMC10567573.

B1: C1orf55 (parent)
chain: FTSPDYQQQCHEMAERLEDSVLKG

Variants of: B1
Assay: protein stability index of a GFP-peptide fusion (GPS, HEK-293T) (PSI 1-6); higher = more stable
Conditions: c terminus: a fixed tail appended
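Also: lentivirally expressed fusions sorted by FACS into six bins by GFP to DsRed ratio, PSI derived from sequencing read proportions per bin multiplied by bin number.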

Variant | protein stability index
FTSKDYQQQCHEMAERLEDSVLKG [P4K] | 2.41
FTSEDYQQQCHEMAERLEDSVLKG [P4E] | 4.3
FTSHDYQQQCHEMAERLEDSVLKG [P4H] | 2.63
FTSMDYQQQCHEMAERLEDSVLKG [P4M] | 2.23
FTSQDYQQQCHEMAERLEDSVLKG [P4Q] | 2.62
FTSLDYQQQCHEMAERLEDSVLKG [P4L] | 2.18
FTSGDYQQQCHEMAERLEDSVLKG [P4G] | 2.06
FTSNDYQQQCHEMAERLEDSVLKG [P4N] | 2.52
FTSIDYQQQCHEMAERLEDSVLKG [P4I] | 2.37
FTSRDYQQQCHEMAERLEDSVLKG [P4R] | 2.8
FTSWDYQQQCHEMAERLEDSVLKG [P4W] | 2.61
FTSFDYQQQCHEMAERLEDSVLKG [P4F] | 2.6
FTSDDYQQQCHEMAERLEDSVLKG [P4D] | 4.06
FTSTDYQQQCHEMAERLEDSVLKG [P4T] | 2.06
FTSADYQQQCHEMAERLEDSVLKG [P4A] | 2.37
FTSVDYQQQCHEMAERLEDSVLKG [P4V] | 2.09
FTSSDYQQQCHEMAERLEDSVLKG [P4S] | 2.26
FTSYDYQQQCHEMAERLEDSVLKG [P4Y] | 1.98
FTFPDYQQQCHEMAERLEDSVLKG [S3F] | 3.06
FTLPDYQQQCHEMAERLEDSVLKG [S3L] | 3.23
FTCPDYQQQCHEMAERLEDSVLKG [S3C] | 2.83
FTIPDYQQQCHEMAERLEDSVLKG [S3I] | 3.73
FTYPDYQQQCHEMAERLEDSVLKG [S3Y] | 3.13
FTPPDYQQQCHEMAERLEDSVLKG [S3P] | 3.61

Variant | protein stability index
FTRPDYQQQCHEMAERLEDSVLKG [S3R] | 2.54
FTNPDYQQQCHEMAERLEDSVLKG [S3N] | 2.75
FTEPDYQQQCHEMAERLEDSVLKG [S3E] | 4.12
FTTPDYQQQCHEMAERLEDSVLKG [S3T] | 2.52
FTQPDYQQQCHEMAERLEDSVLKG [S3Q] | 3.1
FTGPDYQQQCHEMAERLEDSVLKG [S3G] | 1.76
FTHPDYQQQCHEMAERLEDSVLKG [S3H] | 3.34
FTAPDYQQQCHEMAERLEDSVLKG [S3A] | 2.89
FTDPDYQQQCHEMAERLEDSVLKG [S3D] | 3.25
FTWPDYQQQCHEMAERLEDSVLKG [S3W] | 2.24
FTKPDYQQQCHEMAERLEDSVLKG [S3K] | 3.47
FTMPDYQQQCHEMAERLEDSVLKG [S3M] | 2.96
FTVPDYQQQCHEMAERLEDSVLKG [S3V] | 3.92
FTSPQYQQQCHEMAERLEDSVLKG [D5Q] | 2.29
FTSPHYQQQCHEMAERLEDSVLKG [D5H] | 2.03
FTSPEYQQQCHEMAERLEDSVLKG [D5E] | 2.41
FTSPSYQQQCHEMAERLEDSVLKG [D5S] | 1.81
FTSPWYQQQCHEMAERLEDSVLKG [D5W] | 2.62
FTSPFYQQQCHEMAERLEDSVLKG [D5F] | 2.09
FTSPIYQQQCHEMAERLEDSVLKG [D5I] | 2.15
FTSPRYQQQCHEMAERLEDSVLKG [D5R] | 2.03
FTSPYYQQQCHEMAERLEDSVLKG [D5Y] | 2.28
FTSPVYQQQCHEMAERLEDSVLKG [D5V] | 1.86
FTSPLYQQQCHEMAERLEDSVLKG [D5L] | 2.33

Variant | protein stability index
FTSPMYQQQCHEMAERLEDSVLKG [D5M] | 2.12
FTSPCYQQQCHEMAERLEDSVLKG [D5C] | 3.59
FTSPKYQQQCHEMAERLEDSVLKG [D5K] | 2.57
FTSPTYQQQCHEMAERLEDSVLKG [D5T] | 2.17
FTSPGYQQQCHEMAERLEDSVLKG [D5G] | 1.8
FTSPAYQQQCHEMAERLEDSVLKG [D5A] | 2.15
FTSPPYQQQCHEMAERLEDSVLKG [D5P] | 2.94
FTSPNYQQQCHEMAERLEDSVLKG [D5N] | 2.47
HTSPDYQQQCHEMAERLEDSVLKG [F1H] | 4.59
DTSPDYQQQCHEMAERLEDSVLKG [F1D] | 4.84
STSPDYQQQCHEMAERLEDSVLKG [F1S] | 4.31
CTSPDYQQQCHEMAERLEDSVLKG [F1C] | 4.43
WTSPDYQQQCHEMAERLEDSVLKG [F1W] | 3.75
ATSPDYQQQCHEMAERLEDSVLKG [F1A] | 4.88
MTSPDYQQQCHEMAERLEDSVLKG [F1M] | 4.55
LTSPDYQQQCHEMAERLEDSVLKG [F1L] | 5
NTSPDYQQQCHEMAERLEDSVLKG [F1N] | 4.84
KTSPDYQQQCHEMAERLEDSVLKG [F1K] | 4.64
PTSPDYQQQCHEMAERLEDSVLKG [F1P] | 5.18
GTSPDYQQQCHEMAERLEDSVLKG [F1G] | 4.87
RTSPDYQQQCHEMAERLEDSVLKG [F1R] | 3.98
VTSPDYQQQCHEMAERLEDSVLKG [F1V] | 4.07
ITSPDYQQQCHEMAERLEDSVLKG [F1I] | 4.68
ETSPDYQQQCHEMAERLEDSVLKG [F1E] | 4.78

Variant | protein stability index
TTSPDYQQQCHEMAERLEDSVLKG [F1T] | 4.88
YTSPDYQQQCHEMAERLEDSVLKG [F1Y] | 1.94
QTSPDYQQQCHEMAERLEDSVLKG [F1Q] | 4.35
FESPDYQQQCHEMAERLEDSVLKG [T2E] | 4.24
FRSPDYQQQCHEMAERLEDSVLKG [T2R] | 4.16
FFSPDYQQQCHEMAERLEDSVLKG [T2F] | 3.69
FASPDYQQQCHEMAERLEDSVLKG [T2A] | 2.62
FSSPDYQQQCHEMAERLEDSVLKG [T2S] | 3.39
FNSPDYQQQCHEMAERLEDSVLKG [T2N] | 4.04
FHSPDYQQQCHEMAERLEDSVLKG [T2H] | 2.25
FGSPDYQQQCHEMAERLEDSVLKG [T2G] | 3.24
FWSPDYQQQCHEMAERLEDSVLKG [T2W] | 3.04
FKSPDYQQQCHEMAERLEDSVLKG [T2K] | 3.92
FVSPDYQQQCHEMAERLEDSVLKG [T2V] | 2.45
FQSPDYQQQCHEMAERLEDSVLKG [T2Q] | 2.87
FDSPDYQQQCHEMAERLEDSVLKG [T2D] | 4.63
FMSPDYQQQCHEMAERLEDSVLKG [T2M] | 3.79
FLSPDYQQQCHEMAERLEDSVLKG [T2L] | 3.48
FISPDYQQQCHEMAERLEDSVLKG [T2I] | 2.14
FCSPDYQQQCHEMAERLEDSVLKG [T2C] | 1.56
FPSPDYQQQCHEMAERLEDSVLKG [T2P] | 3.77
FYSPDYQQQCHEMAERLEDSVLKG [T2Y] | 2.88
